Experimental data from US20220211812A1 (Bristol-Myers Squibb, published 2022).
Square brackets hold non-standard residues; d marks the D form. Ends that are not written are not given here. Phe(4-Ac) = CC(=O)c1ccc(C[C@H](N)C(=O)O)cc1

T1: human RXFP1 receptor (human, UniProt Q9HBX9 1-757)
T1 sequence (looked up): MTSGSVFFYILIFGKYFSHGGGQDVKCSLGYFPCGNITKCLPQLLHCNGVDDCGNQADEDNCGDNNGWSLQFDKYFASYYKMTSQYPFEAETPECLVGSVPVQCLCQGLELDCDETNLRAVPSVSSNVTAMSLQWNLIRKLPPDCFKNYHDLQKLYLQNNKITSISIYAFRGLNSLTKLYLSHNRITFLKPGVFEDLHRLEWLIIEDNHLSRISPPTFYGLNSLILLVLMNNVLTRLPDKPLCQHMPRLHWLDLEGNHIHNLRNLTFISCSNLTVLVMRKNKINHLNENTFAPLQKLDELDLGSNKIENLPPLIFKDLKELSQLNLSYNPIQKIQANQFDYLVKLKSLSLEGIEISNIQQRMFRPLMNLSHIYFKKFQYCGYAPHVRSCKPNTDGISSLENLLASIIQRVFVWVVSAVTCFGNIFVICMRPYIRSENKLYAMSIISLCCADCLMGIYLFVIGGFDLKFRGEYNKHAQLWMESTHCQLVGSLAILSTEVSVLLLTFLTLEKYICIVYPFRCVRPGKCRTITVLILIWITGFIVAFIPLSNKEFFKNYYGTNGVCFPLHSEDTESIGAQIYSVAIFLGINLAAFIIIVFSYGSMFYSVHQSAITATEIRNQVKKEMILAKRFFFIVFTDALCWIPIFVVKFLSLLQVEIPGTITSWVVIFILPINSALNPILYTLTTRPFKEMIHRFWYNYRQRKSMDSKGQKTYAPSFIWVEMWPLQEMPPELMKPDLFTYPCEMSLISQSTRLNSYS


target: T1, human RXFP1 receptor; test: cell-based or functional assay

Binder	hRXFP1/CHO-K1 cAMP EC50 (nM, avg) [nM]
AQ1-EEEEPEEEEPEEEEPEEEE-Glu^γ-C14-CH3 (ligand, not fully specified; Glu^γ bonded by amide to fatty acid -C14-CH3; oxime-linked to pAcF of the A chain; pAcF (para-acetyl-L-phenylalanine) at position 1, oxime-linked to PK enhancer EEEEPEEEEPEEEEPEEEE-Glu^γ-C14-CH3) chain 1: XLYSALANKCCHVGCTKRSLARFC chain 2: ASWMEEVIKLCGRELVRAQIAICGMSTWS peptide: EEEEPEEEEPEEEEPEEEEE	0.33
AQ1-RGGEEKKKEKEK-Glu^γ-C13-COOH (ligand, not fully specified; Glu^γ bonded by amide to fatty acid -C13-COOH; oxime-linked to pAcF of the A chain; pAcF (para-acetyl-L-phenylalanine) at position 1, oxime-linked to PK enhancer RGGEEKKKEKEK-Glu^γ-C13-COOH) chain 1: XLYSALANKCCHVGCTKRSLARFC chain 2: ASWMEEVIKLCGRELVRAQIAICGMSTWS peptide: RGGEEKKKEKEKE	0.29
AQ1-KKKKKK-Glu^γ-C13-COOH (ligand, not fully specified; Glu^γ bonded by amide to fatty acid -C13-COOH; oxime-linked to pAcF of the A chain; pAcF (para-acetyl-L-phenylalanine) at position 1, oxime-linked to PK enhancer KKKKKK-Glu^γ-C13-COOH) chain 1: XLYSALANKCCHVGCTKRSLARFC chain 2: ASWMEEVIKLCGRELVRAQIAICGMSTWS peptide: KKKKKKE	0.08
AQ1-Sar-Sar-Sar-Sar-Ser-Glu^γ-C13-COOH (ligand, not fully specified; Sar = sarcosine (N-methylglycine); Glu^γ bonded by amide to fatty acid -C13-COOH; oxime-linked to pAcF of the A chain; pAcF (para-acetyl-L-phenylalanine) at position 1, oxime-linked to PK enhancer Sar-Sar-Sar-Sar-Ser-Glu^γ-C13-COOH) chain 1: XLYSALANKCCHVGCTKRSLARFC chain 2: ASWMEEVIKLCGRELVRAQIAICGMSTWS peptide: XXXXSE	0.32
AQ1-GGGEEE-Glu^γ-C13-COOH (ligand, not fully specified; Glu^γ bonded by amide to fatty acid -C13-COOH; oxime-linked to pAcF of the A chain; pAcF (para-acetyl-L-phenylalanine) at position 1, oxime-linked to PK enhancer GGGEEE-Glu^γ-C13-COOH) chain 1: XLYSALANKCCHVGCTKRSLARFC chain 2: ASWMEEVIKLCGRELVRAQIAICGMSTWS peptide: GGGEEEE	0.22
AQ1-KKKGGG-Glu^γ-C13-COOH (ligand, not fully specified; Glu^γ bonded by amide to fatty acid -C13-COOH; oxime-linked to pAcF of the A chain; pAcF (para-acetyl-L-phenylalanine) at position 1, oxime-linked to PK enhancer KKKGGG-Glu^γ-C13-COOH) chain 1: XLYSALANKCCHVGCTKRSLARFC chain 2: ASWMEEVIKLCGRELVRAQIAICGMSTWS peptide: KKKGGGE	0.09
AQ1-Sar-Sar-Sar-Glu-Glu-Glu^γ-C13-COOH (ligand, not fully specified; Sar = sarcosine (N-methylglycine); Glu^γ bonded by amide to fatty acid -C13-COOH; oxime-linked to pAcF of the A chain; pAcF (para-acetyl-L-phenylalanine) at position 1, oxime-linked to PK enhancer Sar-Sar-Sar-Glu-Glu-Glu^γ-C13-COOH) chain 1: XLYSALANKCCHVGCTKRSLARFC chain 2: ASWMEEVIKLCGRELVRAQIAICGMSTWS peptide: XXXEEE	0.59
AQ1-Compound 39 (ligand, pAcF (para-acetyl-L-phenylalanine) at position 1, oxime-linked to Compound 39 ((S)-1-(aminooxy)-33-carboxy-4,7,17,27,35-pentaoxo-11,14,21,24-tetraoxa-3,8,18,28,34-pentaazadopentacontan-52-oic acid)) chain 1: XLYSALANKCCHVGCTKRSLARFC chain 2: ASWMEEVIKLCGRELVRAQIAICGMSTWS	2.23
AQ1-EESGGSGG-Glu^γ-C13-COOH (ligand, not fully specified; Glu^γ bonded by amide to fatty acid -C13-COOH; oxime-linked to pAcF of the A chain; pAcF (para-acetyl-L-phenylalanine) at position 1, oxime-linked to PK enhancer EESGGSGG-Glu^γ-C13-COOH) chain 1: XLYSALANKCCHVGCTKRSLARFC chain 2: ASWMEEVIKLCGRELVRAQIAICGMSTWS peptide: EESGGSGGE	0.83
AQ1-GGGGS-Glu^γ-C15-COOH (ligand, not fully specified; Glu^γ bonded by amide to fatty acid -C15-COOH; oxime-linked to pAcF of the A chain; pAcF (para-acetyl-L-phenylalanine) at position 1, oxime-linked to PK enhancer GGGGS-Glu^γ-C15-COOH) chain 1: XLYSALANKCCHVGCTKRSLARFC chain 2: ASWMEEVIKLCGRELVRAQIAICGMSTWS peptide: GGGGSE	1.55
AQ1-KKSGGSGGEE-Glu^γ-C13-COOH (ligand, not fully specified; Glu^γ bonded by amide to fatty acid -C13-COOH; oxime-linked to pAcF of the A chain; pAcF (para-acetyl-L-phenylalanine) at position 1, oxime-linked to PK enhancer KKSGGSGGEE-Glu^γ-C13-COOH) chain 1: XLYSALANKCCHVGCTKRSLARFC chain 2: ASWMEEVIKLCGRELVRAQIAICGMSTWS peptide: KKSGGSGGEEE	0.16
AQ1-KKSGGSGG-Glu^γ-C13-COOH (ligand, not fully specified; Glu^γ bonded by amide to fatty acid -C13-COOH; oxime-linked to pAcF of the A chain; pAcF (para-acetyl-L-phenylalanine) at position 1, oxime-linked to PK enhancer KKSGGSGG-Glu^γ-C13-COOH) chain 1: XLYSALANKCCHVGCTKRSLARFC chain 2: ASWMEEVIKLCGRELVRAQIAICGMSTWS peptide: KKSGGSGGE	0.34
AQ1-GGGGS-Glu^γ-C13-COOH (ligand, not fully specified; Glu^γ bonded by amide to fatty acid -C13-COOH; oxime-linked to pAcF of the A chain; pAcF (para-acetyl-L-phenylalanine) at position 1, oxime-linked to PK enhancer GGGGS-Glu^γ-C13-COOH) chain 1: XLYSALANKCCHVGCTKRSLARFC chain 2: ASWMEEVIKLCGRELVRAQIAICGMSTWS peptide: GGGGSE	0.14
AQ1-dKdKdKdKdKdK-Glu^γ-C13-COOH (ligand, not fully specified; dK = D-lysine (six); Glu^γ bonded by amide to fatty acid -C13-COOH; oxime-linked to pAcF of the A chain; pAcF (para-acetyl-L-phenylalanine) at position 1, oxime-linked to PK enhancer dKdKdKdKdKdK-Glu^γ-C13-COOH) chain 1: XLYSALANKCCHVGCTKRSLARFC chain 2: ASWMEEVIKLCGRELVRAQIAICGMSTWS peptide: KKKKKKE	0.1
AQ1-Sar-Sar-Sar-Sar-Ser-Sar-Sar-Sar-Sar-Glu^γ-C13-COOH (ligand, not fully specified; Sar = sarcosine (N-methylglycine); Glu^γ bonded by amide to fatty acid -C13-COOH; oxime-linked to pAcF of the A chain; pAcF (para-acetyl-L-phenylalanine) at position 1, oxime-linked to PK enhancer Sar-Sar-Sar-Sar-Ser-Sar-Sar-Sar-Sar-Glu^γ-C13-COOH) chain 1: XLYSALANKCCHVGCTKRSLARFC chain 2: ASWMEEVIKLCGRELVRAQIAICGMSTWS peptide: XXXXSXXXXE	0.39
AQ1-EEEGGG-Glu^γ-C14-COOH (ligand, not fully specified; Glu^γ bonded by amide to fatty acid -C14-COOH; oxime-linked to pAcF of the A chain; pAcF (para-acetyl-L-phenylalanine) at position 1, oxime-linked to PK enhancer EEEGGG-Glu^γ-C14-COOH) chain 1: XLYSALANKCCHVGCTKRSLARFC chain 2: ASWMEEVIKLCGRELVRAQIAICGMSTWS peptide: EEEGGGE	1.88
AQ1-EEEGGG-dGlu^γ-C13-COOH (ligand, not fully specified; dGlu^γ = D-glutamic acid (gamma), linked to fatty acid -C13-COOH; oxime-linked to pAcF of the A chain; pAcF (para-acetyl-L-phenylalanine) at position 1, oxime-linked to PK enhancer EEEGGG-dGlu^γ-C13-COOH) chain 1: XLYSALANKCCHVGCTKRSLARFC chain 2: ASWMEEVIKLCGRELVRAQIAICGMSTWS peptide: EEEGGGE	1.91
BM25/AN1-C13-CH3 (ligand, disulfide (positions not given here); not fully specified (some residues); ends not checked; also: PK enhancer C13-CH3 oxime-linked to pAcF25) chain 1: NLYSALANKCCHVGCTKRSLARFC chain 2: ASWMEEVIKLCGRELVRAQIAICG[Phe(4-Ac)]STWS	1.85
AQ1-EEEGGG-Glu^γ-C15-CH3 (ligand, not fully specified; Glu^γ bonded by amide to fatty acid -C15-CH3; oxime-linked to pAcF of the A chain; pAcF (para-acetyl-L-phenylalanine) at position 1, oxime-linked to PK enhancer EEEGGG-Glu^γ-C15-CH3) chain 1: XLYSALANKCCHVGCTKRSLARFC chain 2: ASWMEEVIKLCGRELVRAQIAICGMSTWS peptide: EEEGGGE	0.46
